# From patent US10577424 (BEIJING MABWORKS BIOTECH, dated 2020)
# B1: mouse 161E5 anti-VISTA antibody (antibody, V domains shown)
# VH: QVQLKQSGAELVRPGASVKLSCKASGYSFTDYYINWVKQRPGQGLEWIARIFPGSGNAYYNEKFKDKATLTVEKSSSAAYMQLSSLTSEDSAVYFCARDDSFYGYWYFDVWGTGTTVTVSS
# VL: NIMMTQSPSSLAVSAGEKVTMSCKSSQSVLYSSNQKNYLAWYQQKPGQSPKLLIYWASTRESGVPDRFTGSGSGTDFTLTISSVQAEDLAVYYCHQYLSSYTFGGGTKLEIK
# notes: also called mouse anti-VISTA antibodies from clone 161E5; murine antibody 161E5
# Legend:
# [1] = target: T1, human VISTA expressed on HEK293A cells (human, UniProt Q9H7M9 33-311); test: FACS blocking assay on HEK293A/human VISTA cells; competitor 200 µg/ml VSIG3-hFc
# T1 construct: also called HEK293A/humanVISTA; HEK293A/human VISTA
# T1 sequence: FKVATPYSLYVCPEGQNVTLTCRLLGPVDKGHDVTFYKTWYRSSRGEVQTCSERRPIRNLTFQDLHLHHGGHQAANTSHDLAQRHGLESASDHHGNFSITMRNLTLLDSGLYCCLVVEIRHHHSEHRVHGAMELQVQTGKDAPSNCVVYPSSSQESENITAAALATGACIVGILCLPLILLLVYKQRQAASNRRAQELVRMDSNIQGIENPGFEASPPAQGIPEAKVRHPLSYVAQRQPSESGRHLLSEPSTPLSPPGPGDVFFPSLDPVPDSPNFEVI
# Method: A cell-based blocking assay by FACS was performed using the HEK293A cells stably overexpressing human VISTA as generated in Example 1. Briefly, 10^5 HEK293A/human VISTA cells were seeded into each well of the 96-well plates and serially diluted anti-VISTA antibodies were added to the plates. After incubated at 4° C. for 1 hour, plates were washed 3 times with PBST. Then 200 μg/ml VSIG3-hFc fusion proteins were added into the plate. After incubation at 4° C. for 1 hour, the plates were washed with PBS for 3 times and then an PE coupled Goat Anti-human IgG (Thermofisher, USA, Cat # PAI-86078) diluted 500× was added to the plates. After incubation at 4° C. for 1 hour, the plates were washed with PBS for 3 times and then cell fluorescence was monitored using a FACS machine (BD).
# [2] = target: T2, mouse VISTA-his (Sino Biological, Cat #:511550-M08H) (mouse, UniProt Q9D659 33-191); test: direct ELISA, coated mouse VISTA-his
# T2 construct: extracellular domain; Bought protein; also called muVISTA-his; mouse VISTA (ECD)-his; not shown: his tag
# T2 sequence (looked up): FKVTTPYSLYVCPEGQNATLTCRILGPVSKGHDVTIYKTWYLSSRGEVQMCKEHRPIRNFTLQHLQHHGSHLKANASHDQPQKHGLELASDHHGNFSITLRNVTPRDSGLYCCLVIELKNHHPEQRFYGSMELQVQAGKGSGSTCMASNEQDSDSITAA
# Method: (§1) Species-cross-reactivity of the 28 VISTA mAbs to monkey or mouse VISTA was further assessed by direct ELISA. Briefly, 500 ng/ml monkey VISTA (ECD)-his (Sino Biological, CN, Cat #: 90801-K08H) or mouse VISTA-his (Sino Biological, CN, Cat #:511550-M08H) was coated on 96-well ELISA plates followed by incubation with 100 μl of serially diluted anti-VISTA antibodies (starting from 40000 ng/ml). Goat anti-mouse IgG conjugated with HRP (Sigma, US, Cat #:A9309-1 ml) was used then. Anti-VISTA antibody JNJ-VSTB174 (referred to as JNJ) (prepared using the amino acid sequences disclosed in WO 2015/097536 A2 with human IgG1/kappa constant regions) was used as the reference.
# [3] = target: T3, human VISTA (ECD)-his (Sino Biological, Cat #:13482-H08H) (human, UniProt Q9H7M9 33-194); test: direct ELISA, coated hVISTA(ECD)-his
# T3 construct: extracellular domain; Bought protein; also called hVISTA(ECD)-his; recombinant human VISTA(ECD)-his; not shown: his tag
# T3 sequence (looked up): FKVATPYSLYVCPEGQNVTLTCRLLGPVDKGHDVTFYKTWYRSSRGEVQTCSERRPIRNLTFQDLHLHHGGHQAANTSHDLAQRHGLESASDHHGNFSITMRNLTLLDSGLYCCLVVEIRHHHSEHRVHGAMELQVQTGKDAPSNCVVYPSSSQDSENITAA
# Method: ELISA plates were coated with 500 ng/ml human VISTA (ECD)-his (Sino Biological, CN, Cat #:13482-H08H) at 4° C. overnight. The wells were blocked with 200 μl of blocking buffer (PBS containing 1% BSA, 1% goat serum, and 0.05% Tween 20) for 2 hours at room temperature, and then 100 μl of serially diluted anti-VISTA antibodies (starting from 40000 ng/ml) were added to each well and incubated for 1 hour at RT. Plates were washed for 3 times with PBST (PBS+0.05% Tween 20), added with Goat-anti-mouse IgG-HRP (Simga, US, Cat #:A9309-1 ml) diluted 5000×, and incubated for 1 hour at RT. Plates were developed with freshly prepared Ultra-TMB (BD, US, Cat #:555214) for 5 minutes at RT. Absorbance was read on a SpectraMax® i3× (Molecular Devies, US) at 450 nm.
# [4] = target: T4, monkey VISTA expressed on HEK293A cells (monkey (cynomolgus)); test: FACS on HEK-293A/cynoVISTA cells
# T4 construct: also called HEK293A/cynoVISTA; HEK293A/monkey VISTA
# T4 chain: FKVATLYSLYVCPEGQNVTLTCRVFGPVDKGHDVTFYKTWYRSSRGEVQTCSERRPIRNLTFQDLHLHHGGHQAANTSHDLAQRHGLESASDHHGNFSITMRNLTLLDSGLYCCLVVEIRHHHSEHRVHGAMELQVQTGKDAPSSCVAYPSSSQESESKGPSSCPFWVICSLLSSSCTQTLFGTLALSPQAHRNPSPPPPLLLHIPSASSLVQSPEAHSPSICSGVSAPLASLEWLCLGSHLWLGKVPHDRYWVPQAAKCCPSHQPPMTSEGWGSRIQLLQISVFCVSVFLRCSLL
# Method: (§2) Example 5 Mouse Anti-VISTA Monoclonal Antibodies Bound to Human and Monkey VISTA Expressed on HEK293A Cells To further determine whether anti-VISTA antibodies bound to human, monkey or mouse VISTA expressed on HEK293A cells, a cell-based binding assay by FACS was performed using the HEK293A cells stably overexpressing human, monkey or mouse VISTA as generated in Example 1, respectively. Briefly, 10^5 HEK293A cells were seeded into each well of the 96-well plates and serially diluted anti-VISTA antibodies were added to the plates. After incubated at 4° C. for 1 hour, plates were washed 3 times with PBST. Then, an APC coupled Goat Anti-Mouse IgG (BioLegend, US, Cat #:405308) diluted 500× was added to the plates. After incubation at 4° C. for 1 hour, the plates were washed with PBS for 3 times and then cell fluorescence was monitored using a FACS machine (BD).
# [5] = target: T5, monkey VISTA (ECD)-his (Sino Biological, Cat #: 90801-K08H) (cynomolgus monkey); test: direct ELISA, coated cynoVISTA(ECD)-his
# T5 construct: extracellular domain; Bought protein; also called cynoVISTA(ECD)-his; cynomolgus VISTA (ECD)-his
# Method: as §1
# [6] = target: T1, human VISTA expressed on HEK293A cells; test: FACS on HEK-293A/hVISTA cells
# Method: as §2
# [7] = target: T6, mouse VISTA expressed on HEK293A cells (mouse, UniProt Q9D659 33-308); test: FACS on HEK293A/mouse VISTA cells
# T6 construct: also called HEK293A/mouseVISTA; HEK293A/mouse VISTA
# T6 sequence: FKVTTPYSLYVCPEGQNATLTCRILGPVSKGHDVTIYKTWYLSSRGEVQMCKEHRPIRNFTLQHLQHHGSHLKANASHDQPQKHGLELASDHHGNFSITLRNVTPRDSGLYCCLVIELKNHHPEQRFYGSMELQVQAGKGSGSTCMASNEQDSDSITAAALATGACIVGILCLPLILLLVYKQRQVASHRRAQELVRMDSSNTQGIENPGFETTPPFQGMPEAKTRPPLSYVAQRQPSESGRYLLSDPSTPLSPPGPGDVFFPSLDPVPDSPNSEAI
# Method: as §2
binder,measurement,setting,value
B1,EC50,[1],19 nM
same,binding result,[2],no binding (tested: starting from 40000 ng/ml)
same,EC50,[3],0.32 nM
same,EC50,[4],1.2 nM
same,EC50,[5],0.45 nM
same,EC50,[6],0.6 nM
same,binding result,[7],no binding
